Assay results as given in the supplement of paper PMC10567573.

B1: MTMR15 (parent)
chain: YVKAKKSIDKDEEFAGSSPQSSKS
B2: RSPH3 (parent)
chain: VDVQTELYLEEIADRIIEVDMECQ

Variants of: B1
Test: protein stability index of a GFP-peptide fusion (GPS, HEK-293T) (PSI 1-6); higher = more stable
Conditions: c terminus: a fixed tail appended
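Also: lentivirally expressed fusions sorted by FACS into six bins by GFP to DsRed ratio, PSI derived from sequencing read proportions per bin multiplied by bin number.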

Protein stability index, by site and new letter:
Y1: F 2.79, H 5.11, D 5.62, E 5.82, A 5.37, G 5.7, K 5.15, M 5.01, I 5.52, L 5.14, C 5.51

Variants of: B2
Test: as above
Conditions: c terminus: a fixed tail appended

Protein stability index: each site, then its substitutions
M21: L 1.66, F 1.47, S 3.85, E 3.85, N 2.99, C 2.38, Q 2.49, W 1.76, K 2.27, D 4.54, R 3.8, T 3.43, V 1.99, G 4.38, H 3.59, P 4.45, I 1.91, Y 1.94, A 3.23
Q24: L 1.33, H 2.52, V 1.84, D 2.82, A 1.95, F 1.14, W 1.5, G 2.79, C 2.32, E 2.31, P 3.33, K 2.12, M 1.59, S 2.72, R 2.52, N 2.05, Y 2.69, I 2.32, T 3.69
I16: M 2.36, H 4.19, R 3.23, P 4.93, Q 4.18, E 4.48, A 3.63, V 3.37, T 4.19, G 4.3, Y 2.57, D 4.54, C 2.85, W 2.97, F 1.87, K 4.49
D14: T 1.93, P 2.45, A 1.94, H 1.55, W 3.47, Q 2.32, S 2.08, K 1.93, N 2.11, E 1.92
E10: T 1.86, A 1.53, G 2.42, Q 1.93, H 2, P 3.62, N 2.06, D 2.54, Y 3.16, R 2.15, S 2.39, W 3.73, K 2.48, F 2.25, C 1.58
C23: P 4.06, L 3.52, R 3.46, M 2.34, Q 4.31, H 4.03, A 3.46, V 5.09, F 2.07, T 3.68, S 3.85, I 2.23, N 3.87, Y 2.71, E 4.22, D 4.4, K 4.46, W 1.88, G 3.72
E22: M 2.83, N 2.86, C 1.89, L 2.53, V 1.57, D 2.77, K 2.27, Q 2.01, T 2.17, F 1.9, R 2.03, P 2.88, A 1.99, H 2.06, I 2.81, S 2.22, G 3.05, Y 2.82
L9: H 4.71, E 5.12, I 2.33, R 4.19, W 1.97, D 5.51, N 5.14, C 3.4, V 2.91, M 3.33, F 2.21, K 4.65, Q 5.62, T 4.38, G 4.44, P 4.5, S 4.92, A 4.01, Y 2.79
D20: G 1.85, E 1.71, K 2.24, V 2.51, N 1.82, P 3.46, H 2.46, Y 4.28, Q 3.34, F 3.1, L 4.62, I 3.01, A 2.54, R 1.15, T 3.29, S 1.65
Y8: M 2.34, Q 4.25, I 1.71, F 1.92, S 3.65
